{"source": "paper PMC8616905", "key": {"[1]": {"target": "Ago2 (guide-loaded) (human) (UniProt Q9UKV8)", "sequence (Q9UKV8 whole entry)": "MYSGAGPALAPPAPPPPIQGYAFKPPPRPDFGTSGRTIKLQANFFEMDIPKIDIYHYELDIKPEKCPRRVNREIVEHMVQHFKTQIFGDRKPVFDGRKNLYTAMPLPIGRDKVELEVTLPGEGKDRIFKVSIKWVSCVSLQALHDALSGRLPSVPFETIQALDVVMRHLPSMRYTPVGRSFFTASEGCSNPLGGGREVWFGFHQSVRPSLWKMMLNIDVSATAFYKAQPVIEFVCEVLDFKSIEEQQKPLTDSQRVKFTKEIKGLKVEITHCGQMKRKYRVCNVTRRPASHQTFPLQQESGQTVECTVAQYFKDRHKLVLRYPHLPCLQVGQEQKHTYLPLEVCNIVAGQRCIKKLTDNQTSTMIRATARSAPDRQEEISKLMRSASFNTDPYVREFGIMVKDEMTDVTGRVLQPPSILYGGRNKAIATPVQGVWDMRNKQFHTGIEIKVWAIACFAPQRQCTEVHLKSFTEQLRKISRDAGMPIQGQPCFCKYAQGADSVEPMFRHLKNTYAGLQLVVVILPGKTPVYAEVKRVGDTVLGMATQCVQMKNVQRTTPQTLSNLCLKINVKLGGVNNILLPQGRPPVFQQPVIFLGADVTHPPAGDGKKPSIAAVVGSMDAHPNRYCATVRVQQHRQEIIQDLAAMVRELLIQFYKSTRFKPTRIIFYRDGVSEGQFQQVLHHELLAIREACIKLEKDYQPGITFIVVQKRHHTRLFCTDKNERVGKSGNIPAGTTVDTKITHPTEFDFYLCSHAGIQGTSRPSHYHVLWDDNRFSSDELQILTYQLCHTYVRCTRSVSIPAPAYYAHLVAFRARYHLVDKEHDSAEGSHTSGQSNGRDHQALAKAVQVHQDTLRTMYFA", "assay": "EMSA"}, "[2]": {"target": "Ago2 (guide-loaded) (human) (UniProt Q9UKV8)", "assay": "koff measurement"}}, "note": "Like-named read-outs stand apart in the source and are kept apart here.", "data": [{"substance": "HCV 5' UTR deltaSL1 + miR-122 guide", "values": [{"measurement": "Kd", "setting": "[1]", "value": 58, "unit": "pM"}]}, {"substance": "Site-1 WT + miR-122 guide", "values": [{"measurement": "binding signal (relative koff (reference))", "setting": "[2]", "value": 1}]}, {"substance": "Site-1 deltaSL1 (A4 bridge) + miR-122 guide", "values": [{"measurement": "koff fold change (fold slower koff than Site-1 WT)", "setting": "[2]", "value": 6}]}, {"substance": "Site-1 t9 abasic + miR-122 guide", "values": [{"measurement": "koff fold change (fold slower koff than Site-1 WT)", "setting": "[2]; abasic nucleotide at t9 (G21)", "value": 3}]}]}
